Source: patent US20230069055A1 (BOLT BIOTHERAPEUTICS, published 2023)

Target: T1, human PD-L1 (hPD-L1), endogenous on JIMT-1 cells (human, UniProt Q9NZQ7 19-290)
T1 construct: The assay used endogenous hPD-L1 on JIMT-1 cells; also called programmed death-ligand 1; CD274
Experiment: flow cytometry, JIMT-1 cells with endogenous hPD-L1, fluorescent anti-human IgG Fc secondary, geometric MFI
Protocol: Diluted binding agents were applied to JIMT-1 cells (˜1×10⁵-2×10⁵ per well) and incubated at 4° C. […] After unbound secondary antibody was washed out, cells were resuspended in FACS buffer plus 2% formaldehyde and analyzed by flow cytometry.

T1 sequence (Q9NZQ7 19-290 limits assumed): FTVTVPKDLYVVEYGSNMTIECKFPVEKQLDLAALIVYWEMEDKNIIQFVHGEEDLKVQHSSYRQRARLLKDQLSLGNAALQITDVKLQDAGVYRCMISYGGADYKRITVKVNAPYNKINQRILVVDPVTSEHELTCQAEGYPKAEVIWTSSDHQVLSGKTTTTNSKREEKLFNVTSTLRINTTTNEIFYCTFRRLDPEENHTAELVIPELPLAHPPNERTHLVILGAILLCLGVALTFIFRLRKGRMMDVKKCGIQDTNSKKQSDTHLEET

Binder	binding result
12 (antibody, V domains shown) VH: QVQLVQSGAEVKKPGASVKVSCKASGYTFTGYYMHWMRQAPGQGLEWIGWMSPYNGITGYAQKFQGRVTMTRDTSTSTVYMELSSLRSEDTAVYYCAREVIEVGMDVWGQGTTVTVSS VL: DIQMTQSPSSLSASVGDRVTITCRASQSISSWLAWYQQKPGKAPKLLIYAASHLQSGVPSRFSGSGSGTDFTLTISSLQPEDFATYYCQQSYSTPYTFGQGTRLEIK	binds
13 (antibody, V domains shown) VH: QVQLVQSGAEVKKPGASVKVSCKASGYTFTNYYMHWVRQAPGQGLEWMGWMSPSSGITGYAQKFQGRVTMTRDTSTSTVYMELSSLRSEDTAVYYCAREAWFGELSTWGQGTLVTVSS VL: DIQMTQSPSSLSASVGDRVTITCRASQNISNFLNWYQQKPGKAPKLLIYAASSLQSGVPSRFSGSGSGTDFTLTISSLQPEDFATYYCQQSYSLPYTFGQGTKVEIK	binds
49 (antibody, V domains shown) VH: QVQLVQSGAEVKKPGASVKVSCKASGYTFTDHYLHWVRQAPGQGLEWMGWINPNIGNTGYAQKFQGRVTMTRDTSTSTVYMELSSLRSEDTAVYYCAREPLQLGGFDYWGQGTLVTVSS VL: DIQMTQSPSSLSASVGDRVTITCRASESISSWLAWYQQKPGKAPKLLIYAASSLQSGVPSRFSGSGSGTDFTLTISSLQPEDFATYYCQQSYSTPLTFGQGTKLEIK	binds
46 (antibody, V domains shown) VH: QVQLVQSGAEVKKPGASVKVSCKASGYTFSTHYMHWVRQAPGQGLEWMGWINPNSGHAGSAQKFQGRVTMTRDTSTSTVYMELSSLRSEDTAVYYCARESIAVAGYDYWGQGTLVTVSS VL: DIQMTQSPSSLSASVGDRVTITCRASQSISSWLAWYQQKPGKAPKLLIYAASTLQRGVPSRFSGSGSGTDFTLTISSLQPEDFATYYCQQSYSTPYTFGQGTKLEIK	binds
47 (antibody, V domains shown) VH: QVQLVQSGAEVKKPGASVKVSCKASGYTFTGYYMHWVRQAPGQGLEWMGWINPNSGTTGYAQNFQGRVTMTRDTSTSTVYMELSSLRSEDTAVYYCAREGFGPNAFDIWGQGTTVTVSS VL: DIQMTQSPSSLSASVGDRVTITCRASQSISSWLAWYQQKPGKAPKLLIYAASNLQSGVPSRFSGSGSGTDFTLTISSLQPEDFATYYCQQYYSTPYTFGQGTKVEIK	binds
45 (antibody, V domains shown) VH: QVQLVQSGAEVKKPGASVKVSCKASGYTFSSYYMHWVRQAPGQGLEWMGWITTNSGITGYAQKFQGRVTMTRDTSTSTVYMELSSLRSEDTAVYYCAREGYSSGLDYWGQGTLVTVSS VL: not shown	binds
48 (antibody, V domains shown) VH: QVQLVQSGAEVKKPGASVKVSCKASGYTFTSYYMHWVRQAPGQGLEWMGWINPNSGNTGYAQKFQGRVTMTRDTSTSTVYMELSSLRSEDTAVYYCARDDWGGDWFDYWGQGTLVTVSS VL: DIQMTQSPSSLSASVGDRVTITCQASQDISNHLNWYQQKPGKAPKLLIYGASNLQRGVPSRFSGSGSGTDFTLTISSLQPEDFATYYCQQSYSTPITFGQGTRLEIK	binds

Target: PD-L1 on CHO-K1/PD-L1/alphaAPC stimulator cells (UniProt Q9NZQ7 19-290, limits assumed)
Experiment: cell-based or functional assay

Sequence of PD-L1 on CHO-K1/PD-L1/alphaAPC stimulator cells (Q9NZQ7 19-290 limits assumed): as the sequence (Q9NZQ7 19-290 limits assumed) above

Binder	PD-L1/PD-1 blockade EC50 (nM)	PD-L1/PD-1 blockade EC50 (ng/ml) [ng/mL]
PD-L1 binding agent 4 (antibody, V domains shown) VH: QVQLVQSGAEVKKPGSSVKVSCKASGYTFTGYYIHWVRQAPGQGLEWMGGIIPIFGTASYAQKFQGRVTITADESTSTAYMELSSLRSEDTAVYYCARDGRFWSGYPDYWGQGTLVTVSS VL: DIQMTQSPSSLSASVGDRVTITCRASQGISNYLAWYQQKPGKAPKLLIYRASNLESGVPSRFSGSGSGTDFTLTISSLQPEDFATYYCQQSYSTPLTFGGGTKVEIK	0.85	124
PD-L1 binding agent 6 (antibody, V domains shown) VH: QVQLVQSGAEVKKPGASVKVSCKASGYTFTSHDINWVRQAPGQGLEWMGWMNPNSGNTGYAQKFQGRVTMTRDTSTSTVYMELSSLRSEDTAVYYCARDRWYMGSADYWGQGTLVTVSS VL: DIQMTQSPSSLSASVGDRVTITCRASQSISTWLAWYQQKPGKAPKLLIYAASTLQSGVPSRFSGSGSGTDFTLTISSLQPEDFATYYCQQSYSTPFTFGQGTKVEIK	0.73	106
PD-L1 binding agent 14 (antibody, V domains shown) VH: QVQLVQSGAEVKKPGASVKVSCKASGYNFSAYYVHWVRQAPGQGLEWMGWMNPNRGITDSAQKFQGRVTMTRDTSTSTVYMELSSLRSEDTAVYYCAREAYVAAFDIWGQGTTVTVSS VL: DIQMTQSPSSLSASVGDRVTITCRASQGISSWLAWYQQKPGKAPKLLIYAASSLQSGVPSRFSGSGSGTDFTLTISSLQPEDFATYYCQQSYSTPLTFGGGTKVEIK	1.15	166
PD-L1 binding agent 5 (antibody, V domains shown) VH: QVQLVQSGAEVKKPGASVKVSCKASGYTFSTHYMHWVRQAPGQGLEWMGWMNPNSGHAGSAQKFQGRVTMTRDTSTSTVYMELSSLRSEDTAVYYCARESIAVAGYDYWGQGTLVTVSS VL: DIQMTQSPSSLSASVGDRVTITCRASQSISSWLAWYQQKPGKAPKLLIYAASTLQRGVPSRFSGSGSGTDFTLTISSLQPEDFATYYCQQSYSTPYTFGQGTKLEIK	0.37	54.3
PD-L1 binding agent 9 (antibody, V domains shown) VH: QVQLVQSGAEVKEPGASVKVSCKASGYTFTDHYLHWVRQAPGQGLEWMGWMNPNIGNTGYAQKFQGRVTMTRDTSTSTVYMELSSLRSEDTAVYYCAREPLQLGGFDYWGQGTLVTVSS VL: DIQMTQSPSSLSASVGDRVTITCRASESISSWLAWYQQKPGKAPKLLIYAASSLQSGVPSRFSGSGSGTDFTLTISSLQPEDFATYYCQQSYSTPLTFGQGTKLEIK	0.67	97.3
PD-L1 binding agent 11 (antibody, V domains shown) VH: QVQLVQSGAEVKKPGASVKVSCKASGYTFTGYYMHWVRQAPGQGLEWMGWMNPNSGNTGYAQKFQGRVTMTRDTSTSTVYMELSSLRSEDTAVYYCARDSWYGDWFDPWGQGTLVTVSS VL: DIQMTQSPSSLSASVGDRVTITCRASQSVGSWLAWYQQKPGKAPKLLIYGASSLQSGVPSRFSGSGSGTDFTLTISSLQPEDFATYYCQQSYSTPLTFGGGTKVEIK	0.37	53.6
PD-L1 binding agent 10 (antibody, V domains shown) VH: QVQLVQSGAEVKKPGASVKVSCKASGYTFTGYYMHWVRQAPGQGLEWMGWMNPNGGTTGYAQNFQGRVTMTRDTSTSTVYMELSSLRSEDTAVYYCAREGFGPNAFDIWGQGTTVTVSS VL: DIQMTQSPSSLSASVGDRVTITCRASQSISSWLAWYQQKPGKAPKLLIYAASNLQSGVPSRFSGSGSGTDFTLTISSLQPEDFATYYCQQYYSTPYTFGQGTKVEIK	0.47	67.4
PD-L1 binding agent 3 (antibody, V domains shown) VH: QVQLVQSGAEVKKPGASVKVSCKASGYTFSSYYMHWVRQAPGQGLEWMGWMTTNSGITGYAQKFQGRVTMTRDTSTSTVYMELSSLRSEDTAVYYCAREGYSSGLDYWGQGTLVTVSS VL: not shown	0.33	47.3
PD-L1 binding agent 16 (antibody, V domains shown) VH: QVQLVQSGAEVKKPGASVKVSCKASGYTLPNYIHWVRQAPGQGLEWMGWIHPRSGATGYAPKFQGRVTMTRDTSTSTVYMELSSLRSEDTAVYYCARDSVFGLDYWGQGTLVTVSS VL: not shown	1.25	181
PD-L1 binding agent 7 (antibody, V domains shown) VH: QVQLVQSGAEVKKPGASVKVSCKASGYTFTSYYMHWVRQAPGQGLEWMGWMNPNSGNTGYAQKFQGRVTMTRDTSTSTVYMELSSLRSEDTAVYYCARDDWGGDWFDPWGQGTLVTVSS VL: DIQMTQSPSSLSASVGDRVTITCQASQDISNHLNWYQQKPGKAPKLLIYGASNLQRGVPSRFSGSGSGTDFTLTISSLQPEDFATYYCQQSYSTPITFGQGTRLEIK	0.73	106
PD-L1 binding agent 1 (antibody, V domains shown) VH: QVQLVQSGAEVKKPGASVKVSCKASGYTFSSDYMHWVRQAPGQGLEWMGWMSPYNGITGYAQKFQGRVTMTRDTSTSTVYMELSSLRSEDTAVYYCARDRFSGSYDYWGQGTLVTVSS VL: not shown	0.74	106
PD-L1 binding agent 15 (antibody, V domains shown) VH: QVQLVQSGAEVKKPGASVKVSCKASGYTFTRHYVHWVRQAPGQGLEWMGWMNPNSGSAGYAQKFQGRVTMTRDTSTSTVYMELSSLRSEDTAVYYCARERGYNAFDYWGQGTLVTVSS VL: EIVMTQSPATLSVSPGERATLSCRASQSLSSSYLAWYQQKPGQAPRLLIYGASTRATGIPARFSGSGSGTEFTLTISSLQSEDFAVYYCHQYFTTPLTFGQGTRLEIK	1.13	164
